Data as given in US20230391891A1 (SYNTHEKINE, published 2023).
Changes are numbered by the printed parent chain.

T1: extracellular domain of hIL10Rb (human, UniProt Q08334 20-220)
T1 construct: also called hIL10Rb ECD; human IL10Rb
T1 sequence: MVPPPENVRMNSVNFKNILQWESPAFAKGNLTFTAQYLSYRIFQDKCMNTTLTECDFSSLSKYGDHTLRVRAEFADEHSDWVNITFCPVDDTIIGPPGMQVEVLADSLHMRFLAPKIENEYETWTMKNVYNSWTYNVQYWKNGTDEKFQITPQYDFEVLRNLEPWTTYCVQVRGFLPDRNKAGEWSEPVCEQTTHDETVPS

T2: extracellular domain of mIL10Rb (mouse, UniProt Q61190 20-220)
T2 construct: also called mIL10Rb ECD; murine IL10Rb
T2 sequence: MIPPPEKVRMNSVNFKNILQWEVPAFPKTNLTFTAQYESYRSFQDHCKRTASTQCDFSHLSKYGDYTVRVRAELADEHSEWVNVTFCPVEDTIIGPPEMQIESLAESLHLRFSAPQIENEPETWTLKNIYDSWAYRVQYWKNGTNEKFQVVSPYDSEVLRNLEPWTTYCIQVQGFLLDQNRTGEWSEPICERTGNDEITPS

B1: hIL10Rb_VHH-26 (VHH)
VHH: QVQLQESGGGSVQAGGSLRLSCAASGYSYSSYCMGWFRQAPGKEREGVATIDSDGMTRYADSVKGRFTISKDNAKNTLYLQMNSLKPEDTAMYYCAAPLYDCDSGAVGRNPPYWGQGTQVTVSS
notes: anti-hIL10Rb camel VHH
B2: hIL10Rb_VHH-4 (VHH)
VHH: QVQLQESGGGSIQAGGSLRLSCAASRYLYSIDYMAWFRQSPGKEREPVAVIYTASGATFYPDSVKGRFTISQDNAKMTVYLQMNSLKSEDTAMYYCAAVRKTDSYLFDAQSFTYWGQGTQVTVSS
notes: anti-hIL10Rb camel VHH
B3: hIL10Rb_VHH-6 (VHH)
VHH: B2 VHH with R19T, Y27D, I31T, D32N, M34V, P47A, F59L, P61S, D103G, S104H
notes: anti-hIL10Rb camel VHH
B4: hIL10Rb_VHH-12 (VHH)
VHH: QVQLQESGGGSVQAGGSLRLSCAASGYTYSSYCMGWFRQAPGKEREGVAHIDSDGSTSYADSVKGRFTISKDNAKNTLYLQMNSLKPEDTAMYYCAADPIPGPGYCDGGPNKYWGQGTQVTVSS
notes: anti-hIL10Rb camel VHH
B5: hIL10Rb_VHH-5 (VHH)
VHH: B4 VHH with S11L, A14P, S58T
notes: anti-hIL10Rb camel VHH
B6: hIL10Rb_VHH-22 (VHH)
VHH: B4 VHH with Y29D, S31R, Q39K
notes: anti-hIL10Rb camel VHH
B7: hIL10Rb_VHH-10 (VHH)
VHH: B4 VHH with S11L, A14P, S58T, T68A
notes: anti-hIL10Rb camel VHH
B8: hIL10Rb_VHH-25 (VHH)
VHH: B4 VHH with V48I, S58T, K112N
notes: anti-hIL10Rb camel VHH
B9: hIL10Rb_VHH-19 (VHH)
VHH: B4 VHH with W114R
notes: anti-hIL10Rb camel VHH
B10: hIL10Rb_VHH-24 (VHH)
VHH: B4 VHH with R19K, S58T, K112N
notes: anti-hIL10Rb camel VHH
B11: hIL10Rb_VHH-20 (VHH)
VHH: B4 VHH with S58T, T68A
notes: anti-hIL10Rb camel VHH
B12: hIL10Rb_VHH-13 (VHH)
VHH: B4 VHH with K112N
notes: anti-hIL10Rb camel VHH
B13: hIL10Rb_VHH-2 (VHH)
VHH: QVQLQESGGGSVQAGGSLRLSCAASGYTYSSYCMGWFRQAPGKEREGVAAIDSDGSTRYADSVKGRFTISKDNAKNTLYLQMNSLKPEDTAMYYCAAEPYCSGGYKRTMVAEFGYWGQGTQVTVSS
notes: anti-hIL10Rb camel VHH
B14: hIL10Rb_VHH-7 (VHH)
VHH: B13 VHH with Y32G, A50T, D52N, R58N, K106P, T108W, M109S
notes: anti-hIL10Rb camel VHH
B15: hIL10Rb_VHH-18 (VHH)
VHH: B13 VHH with Y27D, A50F, K64E, K106H, T108K, M109E, V110M
notes: anti-hIL10Rb camel VHH
B16: hIL10Rb_VHH-9 (VHH)
VHH: B13 VHH with S11L, A14P, Y32G, A50T, D52N, R58N, K106P, T108W, M109S
notes: anti-hIL10Rb camel VHH
B17: hIL10Rb_VHH-1 (VHH)
VHH: B13 VHH with Y32G, G47A, D52N, R58S, K106P, T108W, M109S
notes: anti-hIL10Rb camel VHH
B18: hIL10Rb_VHH-11 (VHH)
VHH: B13 VHH with E44G
notes: anti-hIL10Rb camel VHH
B19: hIL10Rb_VHH-23 (VHH)
VHH: B13 VHH with N76K, T77I, P87V, Y115F
notes: anti-hIL10Rb camel VHH
B20: hIL10Rb_VHH-14 (VHH)
VHH: B13 VHH with Y32G, A50T, D52N, R58N, A91G, K106P, T108W, M109S
notes: anti-hIL10Rb camel VHH
B21: hIL10Rb_VHH-8 (VHH)
VHH: QVQLQESGGGSVQAGGSLRLSCAASGYSYSSYCMGWFRQAPGKEREGVAAIASDGSTSYADSVKGRFAISKDNAKNTLYLQMASLKPEDTAMYYCAAEPWCTGGYSRLTPAEYGYWGQGTQVTVSS
notes: anti-hIL10Rb camel VHH
B22: hIL10Rb_VHH-16 (VHH)
VHH: QVQLQESGGGSVEAGGSLRLSCAASGYTHSSYCMGWFRQAPGKEREGVAAIDVDGSTTYADSVKGRFTISKDNAKNTLYLQMNSLKPEDTGMYYCAAEFADCSSNYFLPPGAVRYWGQGTQVTVSS
notes: anti-hIL10Rb camel VHH
B23: hIL10Rb_VHH-15 (VHH)
VHH: QVQLQESGGGSVQAGGSLRLSCTVSRYTASVNYMGWFRQAPGKEREGVATIFTGAGTTYYANSVKGRFTISRDNAKNTAYLQMNSLKPEDTAIYYCAVDFRGGLLYRPAYEYTYRGQGTQVTVSS
notes: anti-hIL10Rb camel VHH
B24: hIL10Rb_VHH-17 (VHH)
VHH: B23 VHH with I93M
notes: anti-hIL10Rb camel VHH
B25: hIL10Rb_VHH-27 (VHH)
VHH: QVQLQESGGGSVQTGGSLRLSCAASGYTYLRGCMGWFRQAPGKEREGVAVMDVVGDRRSYIDSVKGRFTISRDNAANSVYLQMDNLKPEDTAMYYCTAGPNCVGWRSGLDYWGQGTQVTVSS
notes: anti-hIL10Rb camel VHH
B26: hIL10Rb_VHH-3 (VHH)
VHH: QVQLQESGGGSVQAGGSLRLSCAASRYTYNSYCMGWFRQAPGKEREGVATIDSDGMTRYADSVKGRFTISKDNAKNTLYLQMNSLKPEDTAMYYCAADADCTIAAMTTNPLGQGTQVTVSS
notes: anti-hIL10Rb camel VHH

Assays:
[1] = biological target: T1, extracellular domain of hIL10Rb; experiment: flow cytometry
[2] = biological target: T2, extracellular domain of mIL10Rb; experiment: flow cytometry, cross-reactivity

| Binder | binding result [1] | binding result [2] |
| --- | --- | --- |
| B1 | binds | binds |
| B2 | binds | binds |
| B3 | binds | binds |
| B4 | binds | binds |
| B5 | binds | – |
| B6 | binds | binds |
| B7 | binds | binds |
| B8 | binds | binds |
| B9 | binds | binds |
| B10 | binds | binds |
| B11 | binds | binds |
| B12 | binds | binds |
| B13 | binds | – |
| B14 | binds | – |
| B15 | binds | – |
| B16 | binds | – |
| B17 | binds | – |
| B18 | binds | – |
| B19 | binds | – |
| B20 | binds | – |
| B21 | binds | – |
| B22 | binds | binds |
| B23 | binds | – |
| B24 | binds | – |
| B25 | binds | – |
| B26 | binds | binds |
